Results reported in patent publication US20160102129A1 (Novo Nordisk, published 2016).
*1 amine or outer side, *2 acyl side, *3 side chain or, on linkers, in order; H or OH if unused. Where no end group is shown, it is not given here. Side-chain parts run from the residue outwards. [ ]: non-standard residue; d: D form. The star is where a group is joined. C18 diacid = O=C(O)CCCCCCCCCCCCCCCCC(=O)*; γGlu = O=C(O)[C@H](CCC(=O)[*:2])N[*:1]; Desaminohistidyl = O=C(CCc1c[nH]cn1)*; Ac4c = NC1(C(=O)O)CCC1; AEEA = NCCOCCOCC(=O)O; Aib = CC(C)(N)C(=O)O

How the values were obtained:
[1] = biological target: T1, human GLP-1 receptor (human, UniProt P43220 24-463); assay: SPA displacement of [125I]GLP-1(7-36)NH2 from hGLP-1R BHK membranes
T1 construct: whole, on cells; reporter assay on whole cells
Experimental: The GLP-1 receptor binding of each derivatives were determined with competitive binding, displacing [¹²⁵I]GLP-1 bound to GLP-1 receptors expressed in cell membranes associated with wheat germ agglutinin (WGA) scintillation proximity assay (SPA) beads. Each derivative was added in a series of concentrations to isolated membranes comprising the human GLP-1 receptor and displacement of the labelled radioligand was monitored. The receptor binding was reported as the concentration at which half of the labelled ligand is displaced from the receptor, the IC⁵⁰ value.
1. For the receptor binding assay 50 μl of the assay buffer was added to each well of an assay plate. [0588] 2. Test compounds were serially diluted to give the following concentrations: 8×10EE-7 M, 8×10EE-8 M, 8×10EE-9 M, 8×10EE-10 M, 8×10EE-11 M, 8×10EE-12 M and 8×10EE-13 M. Twenty-five μl were added to appropriate wells in the assay plate. [0589] 3. Cell membrane aliquots were thawed and diluted to their working concentration. Fifty μl were added to each well in the assay plate. [0590] 4. WGA SPA beads were suspended in assay buffer at 20 mg/ml. The suspension was diluted to 10 mg/ml in assay buffer just prior to addition to the assay plate. Fifty μl were added to each well in the assay plate. [0591] 5. […] A 25 μl aliquot was reserved for measuring total counts/well. [0592] 6. The assay plate was incubated for 2 h at 30° C. [0593] 7. The assay plate was centrifuged for 10 min. [0594] 8. The assay plate was read in a Perkin Elmer TopCount NXT instrument.

[2] = biological target: T2, human glucagon receptor (human, UniProt P47871 26-477); assay: SPA displacement of [125I]-glucagon from human glucagon receptor BHK membranes
T2 construct: whole, on cells; reporter assay on whole cells
Experimental: 1. For the receptor binding assay 50 μl of the assay buffer was added to each well of an assay plate. [0603] 2. Test compounds were serially diluted to give the following concentrations: 8×10EE-7 M, 8×10EE-8 M, 8×10EE-9 M, 8×10EE-10 M, 8×10EE-11 M, 8×10EE-12 M and 8×10EE-13 M. Twenty-five μl were added to appropriate wells in the assay plate. [0604] 3. Cell membrane aliquots were thawed and diluted to their working concentration. Fifty μl were added to each well in the assay plate. [0605] 4. WGA SPA beads were suspended in assay buffer at 20 mg/ml. The suspension was diluted to 10 mg/ml in assay buffer just prior to addition to the assay plate. Fifty μl were added to each well in the assay plate. [0606] 5. […] A 25 μl aliquot was reserved for measuring total counts/well. […] 6. The assay plate was incubated for 2 h at 25° C. [0608] 7. The assay plate was centrifuged for 10 min at 1500 rpm. [0609] 8. The assay plate was read in a Perkin Elmer TopCount NXT instrument.

[3] = biological target: T2, human glucagon receptor; assay: cell-based or functional assay
[4] = biological target: T1, human GLP-1 receptor; assay: cell-based or functional assay

T2 sequence (P47871 26-477): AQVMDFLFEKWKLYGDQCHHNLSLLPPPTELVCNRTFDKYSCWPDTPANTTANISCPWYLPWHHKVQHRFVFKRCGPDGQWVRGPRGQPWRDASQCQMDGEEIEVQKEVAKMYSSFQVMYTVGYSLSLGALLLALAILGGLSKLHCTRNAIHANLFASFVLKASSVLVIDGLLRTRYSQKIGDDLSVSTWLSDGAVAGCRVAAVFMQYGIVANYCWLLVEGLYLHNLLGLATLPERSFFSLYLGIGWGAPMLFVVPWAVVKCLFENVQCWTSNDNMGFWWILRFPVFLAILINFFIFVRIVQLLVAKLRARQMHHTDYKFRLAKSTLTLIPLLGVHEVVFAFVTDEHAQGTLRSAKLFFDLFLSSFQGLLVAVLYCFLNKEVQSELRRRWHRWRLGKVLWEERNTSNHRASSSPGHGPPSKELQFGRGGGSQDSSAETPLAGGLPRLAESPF

| Binder | IC50 [1] | IC50 [2] | EC50 GlucagonR [pM], CRE luciferase reporter gene assay [3] | EC50 GLP-1R [pM], CRE luciferase reporter gene assay [4] |
| --- | --- | --- | --- | --- |
| [Desaminohistidyl]AHGTFTSDVSRYLEGRAAREFIAWLLK([Ado-Ado-γGlu-γGlu-γGlu-C18 diacid]) | 19 nM | 43.4 nM | – | – |
| [Desaminohistidyl][Aib]HGTFTSDVSKYLEEQAAREFIAWLLK([Ado-Ado-γGlu-γGlu-γGlu-C18 diacid])T (Named as peptide, not peptide amide (C-terminal acid)) | 4.6 nM | 28.1 nM | – | – |
| [Desaminohistidyl]AHGTFTSDVSKYLEGRAAREFIAWLLK([Ado-Ado-γGlu-γGlu-γGlu-C18 diacid])GGG | 0.9 nM | 69.5 nM | – | – |
| [Desaminohistidyl][Aib]HGTFTSDVSKYLEK([γGlu-γGlu-AEEA-AEEA-γGlu-C18 diacid])QAAREFIAWLLKGGG | 0.5 nM | 56 nM | – | – |
| [Desaminohistidyl][Aib]HGTFTSDYSKYLEEQAAREFIAWLLKGK([Gly-Ser-Glu-Gly-Ser-γGlu-γGlu-C18 diacid])G | 3.2 nM | 31.1 nM | – | – |
| [Desaminohistidyl][Aib]HGTFTSDVSKYLEEQAAREFIAWLLK([Gly-Ser-Glu-Gly-Ser-γGlu-γGlu-C18 diacid])T-NH2 | 0.4 nM | 3.2 nM | 40.7 pM | 5 pM |
| [Desaminohistidyl][Aib]HGTFTSDYSKYLEGK([AEEA-AEEA-γGlu-C18 diacid])AAREFIAWLLKT-NH2 (SMILES CC[C@H](C)[C@H](NC(=O)[C@H](Cc1ccccc1)NC(=O)[C@H](CCC(=O)O)NC(=O)[C@H](CCCNC(=N)N)NC(=O)[C@H](C)NC(=O)[C@H](C)NC(=O)[C@H](CCCCNC(=O)COCCOCCNC(=O)COCCOCCNC(=O)CC[C@H](NC(=O)CCCCCCCCCCCCCCCCC(=O)O)C(=O)O)NC(=O)CNC(=O)[C@H](CCC(=O)O)NC(=O)[C@H](CC(C)C)NC(=O)[C@H](Cc1ccc(O)cc1)NC(=O)[C@H](CCCCN)NC(=O)[C@H](CO)NC(=O)[C@H](Cc1ccc(O)cc1)NC(=O)[C@H](CC(=O)O)NC(=O)[C@H](CO)NC(=O)[C@@H](NC(=O)[C@H](Cc1ccccc1)NC(=O)[C@@H](NC(=O)CNC(=O)[C@H](Cc1c[nH]cn1)NC(=O)C(C)(C)NC(=O)CCc1c[nH]cn1)[C@@H](C)O)[C@@H](C)O)C(=O)N[C@@H](C)C(=O)N[C@@H](Cc1c[nH]c2ccccc12)C(=O)N[C@@H](CC(C)C)C(=O)N[C@@H](CC(C)C)C(=O)N[C@@H](CCCCN)C(=O)N[C@H](C(N)=O)[C@@H](C)O) | 13.1 nM | 51 nM | – | – |
| XXHGTFTSDYSKYLEGRAAREFIAWLLKK (Imp (desamino-His) at 7; Acb at 8; Lys35 N-epsilon acylated with 17-carboxyheptadecanoyl-γGlu-γGlu-Ado-γGlu-Ado-γGlu-Ado-γGlu-; C-terminal amide (GLP-1(7-37) numbering)) | 7.3 nM | 22.5 nM | 222 pM | 16 pM |
| XXHGTFTSDYSRYLEEQAAREFIAWLLRK (Imp (desamino-His) at 7; Acb at 8; Lys35 N-epsilon acylated with 17-carboxyheptadecanoyl-γGlu-γGlu-Ado-γGlu-Ado-γGlu-Ado-γGlu-; C-terminal amide (GLP-1(7-37) numbering)) | 0.9 nM | 5.6 nM | 71 pM | 3 pM |
| XXHGTFTSDYSKYLERRAAREFIAWLLKK (Imp (desamino-His) at 7; Acb at 8; Lys35 N-epsilon acylated with 17-carboxyheptadecanoyl-γGlu-γGlu-Ado-γGlu-Ado-γGlu-Ado-γGlu-; C-terminal amide (GLP-1(7-37) numbering)) | 1.8 nM | 8.6 nM | 54 pM | 8 pM |
| [Desaminohistidyl][Ac4c]HGTFTSDVSKYLEEQAAREFIAWLLKK([Gly-Ser-Glu-Gly-Ser-γGlu-γGlu-C18 diacid])-NH2 | 0.1 nM | 43.9 nM | 163 pM | 2 pM |
| [Desaminohistidyl][Aib]HGTFTSDVSRYLEGQAAREFIAWLLK([Gly-Ser-Glu-Gly-Ser-γGlu-γGlu-C18 diacid])T-NH2 | 0.9 nM | 8.9 nM | 143 pM | 17 pM |
| [Desaminohistidyl][Aib]HGTFTSDLSKYLEEQAAREFIAWLLK([Ado-Ado-γGlu-γGlu-C18 diacid])T-NH2 | 1.1 nM | 5.1 nM | 54.2 pM | 14.7 pM |
| [Desaminohistidyl][Aib]HGTFTSDVSKYLEEQAAREFIAWLIK([Ado-Ado-γGlu-γGlu-C18 diacid])T-NH2 | 0.2 nM | 11.8 nM | 106 pM | 18.3 pM |
| [Desaminohistidyl][Ac4c]HGTFTSDVSKYLEGRAAREFIAWLLK([Gly-Ser-Glu-Gly-Ser-γGlu-γGlu-C18 diacid])T-NH2 | 0.3 nM | 7.2 nM | 28 pM | 12 pM |
| XXHGTFTSDYSKYLEEQAAREFIAWLLKK (Imp (desamino-His) at 7; Acb at 8; Lys35 N-epsilon acylated with 17-carboxyheptadecanoyl-γGlu-γGlu-Ado-γGlu-Ado-γGlu-Ado-γGlu-; C-terminal amide (GLP-1(7-37) numbering)) | 1.4 nM | 6.9 nM | 78 pM | 3 pM |
| XXHGTFTSDYSKYLERQAAREFIAWLLKK (Imp (desamino-His) at 7; Acb at 8; Lys35 N-epsilon acylated with 17-carboxyheptadecanoyl-γGlu-γGlu-Ado-γGlu-Ado-γGlu-Ado-γGlu-; C-terminal amide (GLP-1(7-37) numbering)) | 2.3 nM | 11.7 nM | 84 pM | 7 pM |
| [Desaminohistidyl][Ac4c]HGTFTSDYSKYLEEQAAREFIAWLLKK([Gly-Ser-Glu-Gly-Ser-γGlu-γGlu-C18 diacid])-NH2 | 0.7 nM | 16 nM | 117 pM | 5.7 pM |
| XXHGTFTSDYSRYLEGRAAREFIAWLLRK (Imp (desamino-His) at 7; Acb at 8; Lys35 N-epsilon acylated with 17-carboxyheptadecanoyl-γGlu-γGlu-Ado-γGlu-Ado-γGlu-Ado-γGlu-; C-terminal amide (GLP-1(7-37) numbering)) | 6.8 nM | 36.7 nM | 226 pM | 18.5 pM |
| [Desaminohistidyl][Aib]HGTFTSDVSKYLEAQAAREFIAWLLK([γGlu-γGlu-Ado-γGlu-γGlu-C18 diacid])T-NH2 | 0.6 nM | 1.7 nM | 21 pM | 3 pM |
| [Desaminohistidyl][Aib]HGTFTSDVSRYLEEQAAREFIAWLLK([Gly-Ser-Glu-Gly-Ser-γGlu-γGlu-C18 diacid])T-NH2 | 0.5 nM | 3.8 nM | 60 pM | 6 pM |
| [Desaminohistidyl][Aib]HGTFTSDVSKYLEEQAAREFIAWLLK([Gly-Ser-Glu-Gly-Ser-γGlu-γGlu-C18 diacid])T (Named as peptide, not peptide amide (C-terminal acid)) | 6.9 nM | 18.8 nM | – | – |
